From patent publication US20260104418A1
Positions count from the first letter of the chain named.

B1: Ab 360 (antibody, V domains shown)
VH: VVQLQQSGPELVKPGASVKMSCKASGYTFTSYLMHWVRQKPGLGLDWIGYINPYNDGTNYNAKFIDKATLTSDKTSSTAYMELSSLTSEDSAIYYCTRGDYWGQGTSVTVSS
VL: DIVMTQSPSSLAVTAGEQVTMSCKSSQSLLNSGNQKNYLTWYQQKPGQPPKLLIYWASIRQSGVPDRFTGSGSGTDFTLTISSVQAEDLAVYYCLNDYGFPLTFGAGTKLELK
B2: Ab 331 (antibody, V domains shown)
VH: EVQLQQSGPELVKPGASVRMSCKASGYTFTSYIMHWVKQKPGQGPEWMGYINPYNDGTNYNEKFKDKATLTSDKSSSTAYMDLSSLTSEDSAVYYCTRGDYWGQGTSVTVSS
VL: B1 VL with A12T, Q18K, I54F, I59T, R60K, Q61K, G74R, G99S
B3: Ab 301 (antibody, V domains shown)
VH: VVQLQQSGPELVKPGASVKMSCKASGYTFTSFLIHWVRQKPGLGLEWIGYINPYDYGINYNVKFMDKVTLTSDKTSSTAYMELSSLTSADSAIYYCTRGDYWGQGTSVIVSS
VL: B1 VL with A15T, S22N, P46T, P49S, I59T
B4: Ab 347 (antibody, V domains shown)
VH: EVQLQQSGPELVKPGASVKMSCKASGYTFTSYLIHWVKQKPGQGLEWIGYINPYNDATYYNEKFKAKATLTSDKSSSTAYMELSSLTSEDTAIYYCTRGDYWSQGTSVTVSS
VL: B1 VL with A12T, Q18K, I59T, A90T, G99S
B5: Ab 358 (antibody, V domains shown)
VH: VVQLVESGGDFVQPGGSRKLSCAVSGFTFSSFGMHWVRQAPEKGLEWVAYISSGTTNIYYADTVKGRFTVSRDNPKNSLFLHMTSLRSEDTAMYYCVRSGYYGNSLDYWGQGTPLTVSS
VL: DIVMTQSPSSLTVTAGEKVTMSCKSSQSLFNSGNQRNYLTWYQQKPGQPPKLLIYWASTRESGVPDRFTGSGSGTGFTLTISSVQAEDLAFYYCQNVYIYPLTFGLGTKLELR
B6: Ab 307 (antibody, V domains shown)
VH: DVKLVESGGGLVKPGGSLKLSCAASGFTFSSYTMSWVRQTPEKRLEWVATIIIGGSYTYYPDSVKGRFTISRDNAKNTLYLQMSSLKSEDTAMYYCTRLVKGNAMDYWGQGTSVAVSS
VL: DIVMTQSPSSLTVTTGEKVTMSCKSSQSLLNSGNQKNYLSWYQQIPGQPPKLLFYWASTRESGVPDRFTGSGSGTDFTLTISNVQAEDLAVYYCQNDYSYPFTFGAGTKLELR
B7: Ab 416 (antibody, V domains shown)
VH: EFQLQQSGPELVKPGASVKISCKASVYSFTGYNMNWVKQSNGKSLEWIGVINPNYGNTNYNQRFKGKATLTVDQSSSTAYMQLNSLTSEDSAVYYCARSEDYYNIRGASWGQGTLVTVSA
VL: QIVLTQSPAIMSASPGQKVTITCSASSTINYMHWYQQKLGSSPKLWIYDTSKLAPGVPARFSGSGSGTSYSLTISSMEAEDAASYFCHQWSSYPPTFGSGTKLELK
B8: Ab 409 (antibody, V domains shown)
VH: QVQLQQSGAELARPGASVKLSCKASGYTFTSYGISWVKQRTGQGLEWIGEISPRSGNTYYNEKFKGKATLTADKSSSTAYMELRSLTSEDSAVYFCATGVITTVIPTDWYFDVWGTGTTVTVSS
VL: DIQMTQTTSSLSASLGDRVTISCRASQDISNYLNWYQQKPDGTVKLLIYYTSRLHSGVPSRFSGSGSGTDYSLTISNLEPEDIATYYCQHYSKLPPTFGSGTKLEIK
B9: Ab 432 (antibody, V domains shown)
VH: QIQLQQSGAELARPRASVKLSCKASGYTFTSDVISWVKQRPGQGLEWIGESYLRNGNTYYNENFKGKATLTADKSSSTAYMELRSLTSEDSAVYFCARSYYGNSFAYWGQGTLVTVSA
VL: DIVMTQSPSSLTVTAREKVTMNCKSTQSLLNSGNQKNYLTWYQQKPGQPPKLLIYWASTRESGVPDRFTGSGSGTDFTLTISSVQAEDLAVYYCQNAYYYPFTFGGGTKLEIK

Molecular target: Claudin-18.1 (CLDN18.1) (human) (UniProt P56856)
Sequence (P56856 whole entry): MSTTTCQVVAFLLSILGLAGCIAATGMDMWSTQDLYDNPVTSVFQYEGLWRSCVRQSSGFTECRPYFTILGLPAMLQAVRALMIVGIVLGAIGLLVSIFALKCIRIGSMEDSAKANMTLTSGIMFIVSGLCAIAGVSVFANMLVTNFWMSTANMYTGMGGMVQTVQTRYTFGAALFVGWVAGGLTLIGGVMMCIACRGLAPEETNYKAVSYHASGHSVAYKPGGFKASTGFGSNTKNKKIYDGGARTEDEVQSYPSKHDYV
Test: FACS titration of AF647-labelled IgG on HEK293T CLDN18.1 cells

Row | EC50 | Binder
1 | 1760 nM | B1
2 | 1680 nM | B2
3 | 675 nM | B3
4 | 1230 nM | B4
5 | 1520 nM | B5

Molecular target: mouse CLDN18.2 (mouse) (UniProt P56857)
Test: FACS titration of AF647-labelled IgG on HEK293T mouse CLDN18.2 cells

Row | EC50 | Binder
6 | 68.8 nM | B6
7 | 591 nM | B7
8 | 1040 nM | B8
9 | 57.7 nM | B1
10 | 810 nM | B2
11 | 1610 nM | B3
12 | 1350 nM | B4
13 | 40.6 nM | B5
14 | 96.8 nM | B9
